Test [1] in a line: Luminescence activity of ZZ-fused KAZ mutants in crude enzyme solutions. Format: biochemical. Particulars: for Relative Luminescence Activity (Imax): ZZ-fused (pCold-ZZ-P-), 1 mM DTT; for Luminescence activity, fold higher than dnKAZ / Luminescence activity, fold higher than wild KAZ: ZZ-fused, coelenterazine (Table 9). The method, boiled down: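 E. coli BL21 crude extracts held with 1 mM DTT (final) on ice over 5 hours. Reaction started with 1 μL extract in 100 μL TE containing 1 μg coelenterazine; luminescence read for 60 seconds, maximum intensity (Imax) reported as relative activity.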

The nature of test [2]: Substrate specificities of KAZ mutants (ZZ-fused, crude enzyme), 6h-f-CTZ. Format: biochemical. Particulars: 1 μg substrate; for Relative Luminescence Activity 6h-f-CTZ Int.: integrated for 60 seconds; for Relative Luminescence Activity 6h-f-CTZ Imax: maximum intensity of luminescence. The protocol:
(§1) The coelenterazine analogues used for substrate specificity studies were synthesized by the methods described in publications. Specifically, bis-coelenterazine was synthesized by the method described in Nakamura et al. (1997) Tetrahedron Lett. 38: 6405-6406; furimazine by the method described in Hall et al. (2012) ACS Chem. Biol. […]; and, 6h-coelenterazine, f-coelenterazine and 6h-f-coelenterazine by the methods described in Inouye et al (2013) Biochem. Biophys. Res. Commun. 437: 23-28.
(§2) DTT was added to the crude enzyme solutions obtained in EXAMPLE 17 at a final concentration of 1 mM and the mixtures were allowed to stand in an ice water for more than 5 hours in the same manner as Example 8. A luminescence reaction was started by the addition of 1 μL each of the crude enzyme solutions to 100 μL of TE containing 1 μg of coelenterazine (manufactured by JNC Corp.) or its analogues. The luminescence activities were determined using a luminometer (manufactured by Atto Inc.: AB2200) for 60 seconds, and the maximum intensity of luminescence (Imax) was shown as relative luminescence activity.

For another test, the system named is CHO-K1 cells. The test is described as follows: Luminescence activity of KAZ mutants expressed in animal culture cells without secretional signal peptide sequence. Format: cell-based, Chinese hamster. Particulars: for Relative Luminescence Activity (Imax) Cell Extracts / Relative Luminescence Activity (Imax) Culture Medium: Table 12, pcDNA3- vectors without secretion signal; for Relative Luminescence Activity (Imax) Cell Extracts / Relative Luminescence Activity (Imax) Culture Medium / Luminescence activity in the cell extracts, fold higher than wild KAZ: CHO-K1, coelenterazine; for Luminescence activity compared with wild KAZ when coelenterazine was used as a substrate: summary of results; for Luminescence activity in the cell extracts, fold higher than wild KAZ: vectors without a secretion signal. On the procedure: Chinese hamster ovary cell line CHO-K1 was cultured in Ham's F-12 medium (manufactured by Wako Pure Chemical Industries, Ltd.) supplemented with 10% (v/v) fetal bovine serum (manufactured by Biowest Inc.). The CHO-K1 cells were plated in a 6-well plate in 1×10^5 cells/well/2 mL medium (n=2) and cultured in an incubator at 37° C. in 5% (v/v) CO2. After 24 hours, the purified recombinant plasmid was transfected to CHO-K1 cells using a FuGene HD transfection kit (manufactured by Promega Corp.), which was provided for subsequent experiment. Specifically, 1 μg of the recombinant plasmid pGL4.13 [Luc2/sv40], 0.1 μg of the internal standard vector and 3 μL of FuGene HD were added to 100 μL of the medium, which was allowed to stand at room temperature for 15 minutes. Subsequently, 100 μL of the DNA-FuGene complex was added to the cells in the 6 wells. After incubation for 48 hours, the culture medium was collected. On the other hand, the KAZ mutants expressed in the cells were washed 3 times with 3 mL of 1×PBS, then suspended in 1 mL of 1×PBS and disrupted on ice by ultrasonication, which was used as enzyme solutions of the cell-extracts of KAZ mutants.
A luminescence reaction was started by adding 5 μL of the culture media and cell extracts obtained in EXAMPLE 10 to 100 μL of 30 mM Tris-HCl (pH 7.6)-10 mM EDTA (manufactured by Wako Pure Chemical Industries, Ltd.) containing 0.5 μg of coelenterazine (manufactured by INC Corp.). The luminescence activity was determined using a luminometer (manufactured by Atto Inc.: AB2200) for 60 seconds, and the maximum intensity of luminescence (Imax) was defined as a percentage.
The gene fragments of the KAZ mutants with two amino acid substitutions and three amino acid substitutions and nanoKAZ containing the Kozak sequence were digested with restriction enzymes Asp718 and XbaI, and inserted into the Asp718-XbaI site of pcDNA3 vector (manufactured by Invitrogen Inc.) to construct the vectors of pcDNA3-KAZ-V44I, pcDNA3-KAZ-A54I, pcDNA3-KAZ-Y138I, pcDNA3-KAZ-V44I-A54I, pcDNA3-KAZ-V44I-Y138I, pcDNA3-KAZ-A54I-Y138I and pcDNA3-KAZ-V44I-A54I-Y138I.
The culture media of the KAZ mutants with two amino acid substitutions and KAZ mutants with three amino acid substitutions and the enzyme solutions of cell-extracts of KAZ mutants were obtained in the same manner as EXAMPLE 10.
Luminescence activities of the resulting enzyme solutions and enzyme solutions of the cell-extracts of KAZ mutants were determined in the same manner as EXAMPLE 11.

Test [3] can be described thus: Substrate specificities of KAZ mutants (ZZ-fused, crude enzyme), furimazine. Format: biochemical. Particulars: 1 μg substrate; for Relative Luminescence Activity Furimazine Int.: integrated for 60 seconds; for Relative Luminescence Activity Furimazine Imax: maximum intensity of luminescence. On the procedure: as §1, §2
The nature of test [4]: Substrate specificities of KAZ mutants (ZZ-fused, crude enzyme), bis-CTZ. Type of test: biochemical. Particulars: 1 μg substrate; for Relative Luminescence Activity bis-CTZ Int.: integrated for 60 seconds; for Relative Luminescence Activity bis-CTZ Imax: maximum intensity of luminescence. On the procedure: as §1, §2
A short description of test [5]: Substrate specificities of KAZ mutants (ZZ-fused, crude enzyme), f-CTZ. Format: biochemical. Particulars: 1 μg substrate; for Relative Luminescence Activity f-CTZ Int.: integrated for 60 seconds; for Relative Luminescence Activity f-CTZ Imax: maximum intensity of luminescence. The protocol: as §1, §2
Where [6] appears, read: Table 9, crude enzyme solution, coelenterazine.

B1: KAZ-A54I-Y138I: KAZ mutant with two amino acid substitutions A54I and Y138I, SEQ ID NO: 14 (protein)
chain: FTLADFVGDWQQTAGYNQDQVLEQGGLSSLFQALGVSVTPIQKVVLSGENGLKIDIHVIIPYEGLSGFQMGLIEMIFKVVYPVDDHHFKIILHYGTLVIDGVTPNMIDYFGRPYPGIAVFDGKQITVTGTLWNGNKIIDERLINPDGSLLFRVTINGVTGWRLCENILA
In the case of B1, the “Relative Luminescence Activity (Imax)” value in test [1] (setting [6]) stood at 23.1. In test [1] (crude enzyme solution), the “Luminescence activity, fold higher than dnKAZ” value was determined as 2.5 fold and the “Luminescence activity, fold higher than wild KAZ” value was determined as 23 fold. In addition, in test [2], the “Relative Luminescence Activity 6h-f-CTZ Int.” value was 5.7 and the “Relative Luminescence Activity 6h-f-CTZ Imax” value amounted to 5.2. Also, in the test with CHO-K1 cells, the “Relative Luminescence Activity (Imax) Cell Extracts” value turned out to be 21.5; the “Relative Luminescence Activity (Imax) Culture Medium” value came to 0.05; the “Luminescence activity compared with wild KAZ when coelenterazine was used as a substrate” value was “markedly higher luminescence activities than wild KAZ”; the “Luminescence activity in the cell extracts, fold higher than wild KAZ” value came out at 22 fold. Besides, in test [3], the “Relative Luminescence Activity Furimazine Int.” value is recorded as 5.8 and the “Relative Luminescence Activity Furimazine Imax” value was 5.9. In test [4], the “Relative Luminescence Activity bis-CTZ Int.” value is given as 9.2 and the “Relative Luminescence Activity bis-CTZ Imax” value is given as 9.5. In test [5], the “Relative Luminescence Activity f-CTZ Int.” value turned out to be 9.2 and the “Relative Luminescence Activity f-CTZ Imax” value came to 19.7.

B2: KAZ-V44I-A54I-Y138I: KAZ mutant with three amino acid substitutions V44I, A54I and Y138I, SEQ ID NO: 16 (protein)
chain: FTLADFVGDWQQTAGYNQDQVLEQGGLSSLFQALGVSVTPIQKIVLSGENGLKIDIHVIIPYEGLSGFQMGLIEMIFKVVYPVDDHHFKIILHYGTLVIDGVTPNMIDYFGRPYPGIAVFDGKQITVTGTLWNGNKIIDERLINPDGSLLFRVTINGVTGWRLCENILA
Consider B2, for which, in test [1] (setting [6]), the “Relative Luminescence Activity (Imax)” value was 66.7. For the same molecule, in test [1] (crude enzyme solution), the “Luminescence activity, fold higher than dnKAZ” value turned out to be 7.1 fold and the “Luminescence activity, fold higher than wild KAZ” value is given as 67 fold. Moreover, in test [2], the “Relative Luminescence Activity 6h-f-CTZ Int.” value is given as 9.6 and the “Relative Luminescence Activity 6h-f-CTZ Imax” value turned out to be 9.5. In addition, in the test on CHO-K1 cells, the “Relative Luminescence Activity (Imax) Cell Extracts” value is 56.0; the “Relative Luminescence Activity (Imax) Culture Medium” value was 0.08; the “Luminescence activity compared with wild KAZ when coelenterazine was used as a substrate” value is on record as “markedly higher luminescence activities than wild KAZ”; the “Luminescence activity in the cell extracts, fold higher than wild KAZ” value stood at 56 fold. In addition, in test [3], the “Relative Luminescence Activity Furimazine Int.” value is 9.2 and the “Relative Luminescence Activity Furimazine Imax” value is listed as 10.6. Moreover, in test [4], the “Relative Luminescence Activity bis-CTZ Int.” value was 11.9 and the “Relative Luminescence Activity bis-CTZ Imax” value came out at 13.3. Moreover, in test [5], the “Relative Luminescence Activity f-CTZ Int.” value stood at 9.5 and the “Relative Luminescence Activity f-CTZ Imax” value was found to be 43.8.

B3: KAZ: wild 19 kDa catalytic protein of Oplophorus luciferase (19kOLase), amino acid sequence SEQ ID NO: 2 (protein, listed as Oplophorus gracilirostris)
chain: FTLADFVGDWQQTAGYNQDQVLEQGGLSSLFQALGVSVTPIQKVVLSGENGLKADIHVIIPYEGLSGFQMGLIEMIFKVVYPVDDHHFKIILHYGTLVIDGVTPNMIDYFGRPYPGIAVFDGKQITVTGTLWNGNKIYDERLINPDGSLLFRVTINGVTGWRLCENILA
Take B3: the “Relative Luminescence Activity (Imax)” value in test [1] (Table 4, 1 μL crude enzyme solution, 1 μg coelenterazine) came out at 1.0. For the same molecule, the “Relative Luminescence Activity (Imax)” value in test [1] (setting [6]) amounted to 1.0. In test [2], the “Relative Luminescence Activity 6h-f-CTZ Int.” value stood at 0.7 and the “Relative Luminescence Activity 6h-f-CTZ Imax” value turned out to be 0.6. Also, in the test on CHO-K1 cells, the “Relative Luminescence Activity (Imax) Cell Extracts” value amounted to 1.0 and the “Relative Luminescence Activity (Imax) Culture Medium” value is on record as 0.03. In test [3], the “Relative Luminescence Activity Furimazine Int.” value came to 0.5 and the “Relative Luminescence Activity Furimazine Imax” value was found to be 0.4. Besides, in test [4], the “Relative Luminescence Activity bis-CTZ Int.” value was found to be 0.9 and the “Relative Luminescence Activity bis-CTZ Imax” value amounted to 0.6. Also, in test [5], the “Relative Luminescence Activity f-CTZ Int.” value came to 0.8 and the “Relative Luminescence Activity f-CTZ Imax” value is 0.9.

(Values after patent US10907134B2, “Mutated genes for the catalytic protein of oplophorus luciferase and use thereof” (JNC CORPORATION, priority 2013, dated 2021).)
